The text below walks through data of the supplement of paper PMC7877785.

The nature of this data set: self-splicing fitness, log relative to wild type (ln ratio); higher = more splicing; Tetrahymena group I intron in knt gene, E. coli kanamycin selection, DiMSum; sequences stand for … in CUCUCU…GGAGGGAAAAGUUAUCAGGCAUGCACCUGGUAGCUAGUCUUUAAACCAAUAGAUUGCAUCGGUUUAAAAGGCAAGACCGUCAAAUUGCGGGAAAGGGGUCAACAGCCGUUCAGUACCAAGUCUCAGGGGAAACUUUGAGAUGGCCUUGCAAAGGGUAUGGUAAUAAGCUGACGGACAUGGUCCUAACCACGCAGCCAAGUCCUAAGUCAACAGAUCUUCUGUUGAUAUGGAUGCAGUUCACAGACUAAAUGUCGGUCGGGGAAGAUGUAUUCUUCUCAUAAGAUAUAGUCGGACCUCUCCUUAAUGGGAGCUAGCGGAUGAAGUGAUGCAACACUGGAGCCGCUGGGAACUAAUUUGUAUGCGAAAGUAUAUUGAUUAGUUUUGGAGUACUCGUGGUCG
A digest of the protocol: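 The eight P1ex-region nucleotides of an intron in the knt kanamycin-resistance gene on pET-22b(+) were all randomised and the library put into E. coli BL21(DE3). Six replicate transformations were grown overnight at 37°C or 30°C on LB agar with or without 25 μg/mL kanamycin, together with 100 μg/mL carbenicillin, 50 μM IPTG and 0.2% rhamnose. Colonies were pooled and amplicon-sequenced on an Illumina HiSeq 2500. Fitness from DiMSum is the error-weighted combination of wild-type-normalised replicate fold changes, kanamycin over none.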

± gives the uncertainty stated by the source.

Consider ACAAAGCAAUAUUACGAAAU, for which the “self-splicing fitness (ln)” value runs as follows: (30 °C) -3.02 ± 0.13; (37 °C) -1.42 ± 0.12. Taken in the same sequence, the figures for CGCUAGCAAUAUUACGUAAU were -3.03 ± 0.16 and -1.53 ± 0.14.

As to UGAAAGCAAUAUUACGGUGU, the “self-splicing fitness (ln)” value (30 °C) was -3.55 ± 0.18 and the “self-splicing fitness (ln)” value (37 °C) is -2.02 ± 0.22. Taken in the same sequence, the figures for AUGGAGCAAUAUUACGGCCU were -1.32 ± 0.19 and -0.862 ± 0.24. Taken in the same sequence, the figures for GGCUAGCAAUAUUACGCCAA were -2 ± 0.11 and -0.903 ± 0.16.

As to AUGGAGCAAUAUUACGUCUA, the “self-splicing fitness (ln)” value (30 °C) was -1.38 ± 0.23 and the “self-splicing fitness (ln)” value (37 °C) is -0.778 ± 0.19. For GUUAAGCAAUAUUACGCCUU, the “self-splicing fitness (ln)” value was -0.286 ± 0.071 (30 °C) and 0.261 ± 0.096 (37 °C). In the case of UAUAAGCAAUAUUACGUUCC, the “self-splicing fitness (ln)” value (30 °C) was -1.83 ± 0.31. In the case of UUACAGCAAUAUUACGCGCA, the “self-splicing fitness (ln)” value reads like this: (30 °C) -0.521 ± 0.11; (37 °C) -0.892 ± 0.12. In the case of CGGGAGCAAUAUUACGGUUG, the “self-splicing fitness (ln)” value (30 °C) was -1.89 ± 0.44. Take UCCCAGCAAUAUUACGAGUG: the “self-splicing fitness (ln)” value (30 °C) is -3.66 ± 0.18 and the “self-splicing fitness (ln)” value (37 °C) was -1.79 ± 0.13.

Turning to AUACAGCAAUAUUACGGCCA, the “self-splicing fitness (ln)” value reads like this: (30 °C) -0.834 ± 0.11; (37 °C) -0.783 ± 0.1. Taken in the same sequence, the figures for CGUGAGCAAUAUUACGCUUU were -2.54 ± 0.35 and -1.98 ± 0.28.

Take UCGGAGCAAUAUUACGGAAC: the “self-splicing fitness (ln)” value (30 °C) was -3.36 ± 0.38. Consider CUAGAGCAAUAUUACGUGGA, for which the “self-splicing fitness (ln)” value (30 °C) was -3.21 ± 0.19 and the “self-splicing fitness (ln)” value (37 °C) is -1.68 ± 0.18. Taken in the same sequence, the figures for UAUCAGCAAUAUUACGUCAG were -1.42 ± 0.093 and -0.143 ± 0.11. GCUGAGCAAUAUUACGCUGU: the “self-splicing fitness (ln)” value (37 °C) is -2.51 ± 0.49. With UUGGAGCAAUAUUACGAGUU, the “self-splicing fitness (ln)” value reads like this: (30 °C) -4.04 ± 0.26; (37 °C) -3.45 ± 0.34.

As for ACAUAGCAAUAUUACGGGAG, the “self-splicing fitness (ln)” value reads like this: (30 °C) -2.13 ± 0.11; (37 °C) -1.52 ± 0.11. On to UCUAAGCAAUAUUACGCUAA, for which the “self-splicing fitness (ln)” value (30 °C) was -3.04 ± 0.19 and the “self-splicing fitness (ln)” value (37 °C) is -1.84 ± 0.18.

CAGUAGCAAUAUUACGCAGG: the “self-splicing fitness (ln)” value by setting is: (30 °C) -1.59 ± 0.096; (37 °C) -0.318 ± 0.11. Regarding UCUCAGCAAUAUUACGCCUA, the “self-splicing fitness (ln)” value by setting is: (30 °C) -2.3 ± 0.19; (37 °C) -1.22 ± 0.2. Regarding UCUGAGCAAUAUUACGGGAA, the “self-splicing fitness (ln)” value (37 °C) was -1.82 ± 0.33. With UGUAAGCAAUAUUACGACUU, the “self-splicing fitness (ln)” value is -1.06 ± 0.09 (30 °C) and 0.0267 ± 0.14 (37 °C). Taken in the same sequence, the figures for GGCUAGCAAUAUUACGGAAU were -0.705 ± 0.072 and -0.0885 ± 0.1. Turning to GGGCAGCAAUAUUACGUUGU, the “self-splicing fitness (ln)” value (30 °C) was -2.7 ± 0.16 and the “self-splicing fitness (ln)” value (37 °C) was -2.77 ± 0.19. Take UCGGAGCAAUAUUACGACGG: the “self-splicing fitness (ln)” value was -3.56 ± 0.43 (30 °C) and -1.36 ± 0.29 (37 °C). Consider GGAAAGCAAUAUUACGGAAA, for which the “self-splicing fitness (ln)” value runs as follows: (30 °C) -2.04 ± 0.22; (37 °C) -1.25 ± 0.24. On to CCUGAGCAAUAUUACGGCUG, for which the “self-splicing fitness (ln)” value (30 °C) is -4.49 ± 0.31 and the “self-splicing fitness (ln)” value (37 °C) is -1.76 ± 0.2. Taken in the same sequence, the figures for CCUAAGCAAUAUUACGGGCG were -2.15 ± 0.11 and -0.76 ± 0.1. Taken in the same sequence, the figures for UAAUAGCAAUAUUACGUCCG were -0.913 ± 0.23 and -0.835 ± 0.2. Taken in the same sequence, the figures for UUGAAGCAAUAUUACGCUGG were -0.756 ± 0.094 and -0.221 ± 0.15. For GAUAAGCAAUAUUACGACUG, the “self-splicing fitness (ln)” value (30 °C) is -1.18 ± 0.2 and the “self-splicing fitness (ln)” value (37 °C) is 0.14 ± 0.25. As to CGGCAGCAAUAUUACGCACG, the “self-splicing fitness (ln)” value was -2.17 ± 0.15 (30 °C) and -2.1 ± 0.23 (37 °C). Taken in the same sequence, the figures for GUAGAGCAAUAUUACGUAAU were -2.04 ± 0.13 and -0.878 ± 0.12. For UUAGAGCAAUAUUACGAAUU, under “30 °C”, the “self-splicing fitness (ln)” value is -1.77 ± 0.28.

Take AGCUAGCAAUAUUACGAUAU: the “self-splicing fitness (ln)” value is, setting by setting: (30 °C) -0.87 ± 0.17; (37 °C) 0.27 ± 0.11. Taken in the same sequence, the figures for GGUCAGCAAUAUUACGUGUU were -0.208 ± 0.047 and 0.537 ± 0.063. Taken in the same sequence, the figures for UGGAAGCAAUAUUACGAUCA were -0.348 ± 0.093 and 0.181 ± 0.12. Consider UCAUAGCAAUAUUACGCUUA, for which the “self-splicing fitness (ln)” value (37 °C) was -1.21 ± 0.26. Take GGCCAGCAAUAUUACGGCAA: the “self-splicing fitness (ln)” value was -0.216 ± 0.082 (30 °C) and -0.645 ± 0.087 (37 °C). Taken in the same sequence, the figures for CUUCAGCAAUAUUACGUGCA were -3.53 ± 0.25 and -3.83 ± 0.3. On to UCACAGCAAUAUUACGUCAC, for which the “self-splicing fitness (ln)” value reads like this: (30 °C) -3.17 ± 0.18; (37 °C) -1.64 ± 0.13. Taken in the same sequence, the figures for AGGAAGCAAUAUUACGGACG were -0.899 ± 0.13 and 0.276 ± 0.14. Taken in the same sequence, the figures for AAGCAGCAAUAUUACGUAUC were -3.07 ± 0.1 and -1.62 ± 0.12.

In the case of CCCGAGCAAUAUUACGUGCU, the “self-splicing fitness (ln)” value is -3.55 ± 0.21 (30 °C) and -1.32 ± 0.16 (37 °C). For the sequence CUCAAGCAAUAUUACGUGGC, the “self-splicing fitness (ln)” value (30 °C) is -4.37 ± 0.22 and the “self-splicing fitness (ln)” value (37 °C) was -2.24 ± 0.14. As for GCGAAGCAAUAUUACGUAUC, the “self-splicing fitness (ln)” value is, setting by setting: (30 °C) -3.34 ± 0.3; (37 °C) -0.83 ± 0.14. Taken in the same sequence, the figures for UGGUAGCAAUAUUACGUUUG were -1.26 ± 0.07 and -0.669 ± 0.098. Taken in the same sequence, the figures for CUGCAGCAAUAUUACGGAAG were -1.56 ± 0.072 and -0.784 ± 0.095.

With CCUGAGCAAUAUUACGCGGA, the “self-splicing fitness (ln)” value runs as follows: (30 °C) -2.9 ± 0.25; (37 °C) -1.17 ± 0.18. For the sequence GAUCAGCAAUAUUACGUACU, the “self-splicing fitness (ln)” value (30 °C) was -0.188 ± 0.067 and the “self-splicing fitness (ln)” value (37 °C) was -0.441 ± 0.074. As for AUAUAGCAAUAUUACGUUCA, the “self-splicing fitness (ln)” value reads like this: (30 °C) -0.388 ± 0.23; (37 °C) -0.707 ± 0.23. Taken in the same sequence, the figures for AAAGAGCAAUAUUACGUUUA were -1.71 ± 0.17 and -1.12 ± 0.21. Taken in the same sequence, the figures for AGUUAGCAAUAUUACGACAG were -0.556 ± 0.098 and -0.495 ± 0.12.

In the case of AUGAAGCAAUAUUACGGAAU, the “self-splicing fitness (ln)” value by setting is: (30 °C) -0.972 ± 0.074; (37 °C) -0.789 ± 0.091.

Take CUAAAGCAAUAUUACGCCUG: the “self-splicing fitness (ln)” value is, setting by setting: (30 °C) 0.183 ± 0.087; (37 °C) 0.129 ± 0.099. Taken in the same sequence, the figures for GAUUAGCAAUAUUACGUGUG were -2.13 ± 0.077 and -1.61 ± 0.075. Taken in the same sequence, the figures for AAUAAGCAAUAUUACGGGUU were -2.37 ± 0.13 and -1.43 ± 0.16.

For the sequence AGGCAGCAAUAUUACGCAAA, the “self-splicing fitness (ln)” value is -1.43 ± 0.15 (30 °C) and -1 ± 0.2 (37 °C). Taken in the same sequence, the figures for ACACAGCAAUAUUACGUGCC were -1.71 ± 0.12 and -0.549 ± 0.093. Taken in the same sequence, the figures for CACGAGCAAUAUUACGUUAC were -4.19 ± 0.36 and -1.25 ± 0.23.
